test: soluble on expression in E. coli; label from the status in PepcDB or PDB records

Question: With “MSLKHLWFEKGAYASKAARQYLNDHFNPLAVKKTAVIRHAALGDQVIVRPFLVEARKFFPNAEITLVTVSNYLYGTPSDLADKTVIMKSRDDSKQLSLRQKWQDYNQLEAQDIIFDVAGTNRSYWMTLLTKAKLKVGFPYKPFLCGTLYNLAVFRSDFQPEVECMLDMLKILGHNPSYPLDFAYPDNRQICDHAAPYIVYFSGASQLRKILTKPEMRAVIEQTIQQQPNVKHVFLEGKNEFEKGEYLQDLADNGSLTIQPCLPLDDLVTFIAKATLVIAPDTGIRNVAISTHTPTVGIFYATVPFRYTPLYEAHTIVMNANGEKPSTEQITSAIDTTLKMRLAAAKNTQEQEGHHHHHH” as the sequence, how does the “soluble on expression in E. coli” value read?
Answer: The value was “soluble”.

Question: Which “soluble on expression in E. coli” value does the source give for “GPGSMQLDDWDTYRETLLYARELAVLLPSSWSELSSEQSATKSSSSLSHSSSLPSLAFVKRVEAPLLTQWMTAAAAAPVTCHCSSVGDSVEDMDYATAVVAARWTRMLGMWIVLRVELLCNTSGGVLTLAEEYEVGRYRQYFVPLAWPMLDRSIRERLAARLCALADKRRVSQPMGGTSCANDMAASSFCGTLLGKDEEDEQACDEVCTRAMEATQRVAREQLRISWDALHPSSIPATVGAKLKRLSAQQSRRHESETGSLPRPVVVHTNCLGGLLHALTSFRLRPQRQHADHGSAPLLTLTQNALLHIGYDLLTKVRSSVIERCYYLIPALLDYESCLLFCEAMLKESAALQAHEKELTRTQSILRLTLQSLLQSALGMYRHVIEALLVDYKKSACKSSASSTPRLVKVSAHLLPANPLVAQEAAQKQHASDAVVPSKPPTHPGAADGCSASAVMRLSEPAFSILVEVLEPTCDLLQRYPADWNVLWTRSLTGPDGRDQGATSGSHIAREGGLLSPSSRRQRLVSQQRQRSIAMDVRREVVSFLDAEVSNCFAAAAAGSGAASKKAQQQAAADAYLTATYLSAYGPHWL” here?
Answer: Its value is “not soluble”.

Question: For “MTTNLTNSNCVEEYKENGKTKIRIKPFNALIELYHHQTPTGSIKENLDKLENYVKDVVKAKGLAIPTSGAFSNTRGTWFEVMIAIQSWNYRVKRELNDYLIIKMPNVKTFDFRKIFDNETREKLHQLEKSLLTHKQQVRLITSNPDLLIIRQKDLIKSEYNLPINKLTHENIDVALTLFKDIEGKCKWDSLVAGVGLKTSLRPDRRLQLVHEGNILKSLFAHLKMRYWNPKAEFKYYGASSEPVSKADDDALQTAATHTIVNVNSTPERAVDDIFSLTSFEDIDKMLDQIIKK”, which “soluble on expression in E. coli” value is on record?
Answer: Its value is “soluble”.

Question: For “MSSTLREASKDTLQAKDKTYHYYSLPLAAKSLGDIARLPKSLKVLLENLLRWQDGESVTDEDIQALAGWLKNAHADREIAWRPARVLMQDFTGVPAVVDLAAMREAVKRLGGDTSKVNPLSPVDLVIDHSVTVDHFGDDDAFEENVRLEMERNHERYMFLKWGKQAFSRFSVVPPGTGICHQVNLEYLGKAVWSELQDGEWIAYPDSLVGTDSHTTMINGLGVLGWGVGGIEAEAAMLGQPVSMLIPDVVGFKLTGKLREGITATDLVLTVTQMLRKHGVVGKFVEFYGDGLDSLPLADRATIANMSPEYGATCGFFPIDAITLEYMRLSGRSDDLVELVETYAKAQGMWRNPGDEPVFTSTLELDMGDVEASLAGPKRPQDRVALGDVPKAFAASAELELNTAQRDRQPVDYTMNGQPYQLPDGAVVIAAITSCTNTSNPSVLMAAGLLAKKAVTLGLKRQPWVKASLAPGSKVVSDYLAQAKLTPYLDELGFNLVGYGCTTCIGNSGPLPEPIETAIKKGDLTVGAVLSGNRNFEGRIHPLVKTNWLASPPLVVAYALAGNMNINLATDPLGYDRKGDPVYLKDIWPSAQEIARAVELVSSDMFRKEYAEVFEGTEEWKSIQVESSDTYGWQSDSTYIRLSPFFDEMQAQPAPVKDIHGARILAMLGDSVTTDHISPAGSIKPDSPAGRYLQNHGVERKDFNSYGSRRGNHEVMMRGTFANIRIRNEMLPGVEGGMTRHLPGTEAMSIYDAAMLYQQEKTPLAVIAGKEYGSGSSRDWAAKGPRLLGIRVVIAESFERIHRSNLIGMGILPLEFPQGVTRKTLGLTGEEVIDIADLQNLRPGATIPVTLTRSDGSKETVPCRCRIDTATELTYYQNDGILHYVIRNMLN”, which “soluble on expression in E. coli” value is on record?
Answer: The value was “not soluble”.

Question: With “MVAQKAYVSTPTLIDYLSRSAIKLLDIHSILLKVREEAMGGEPNLLRQIDSTKKQLDEISHALILEYRKRQENERFLKQILLSISDQLFSLNNGFKETGRLFFQEIRMLQSQMQCFYEGKERQYLLSEQESSYSPSKIDEVIKQLQKAREKLIVESPHLFEKEC” as the sequence, how does the “soluble on expression in E. coli” value read?
Answer: The value was “not soluble”.

Question: For “MGSDKIHHHHHHMQTVQALLTAAKVDSAESPYDTIHIKVLYPAKNTDSNLEKNWGMLPVDAAQAPFPVVIFFNGFNCDAQKYQWLGIELAQTGLVVVMFNWVGESLPGLVSFTPGFEIEKRKREFYGTVPTASALPVILTKLAQLQSAGILSGTLDLEKIILGGHSEGGRVAMENANPNFFPQVVASFAYGSHTAGAVMLGYKPNTILPLPDTLPRLVIGGTHDGVIANSSAHFGLNTKDATTPVIRTFQEAIMGGRENSYLLLLRGANHFSIVDIVDSTLALPFKDIPATQPQEHFRLLLATIIHLFIDAHVRHQPEAFQKLEQLLIVTNPLIQSFERK”, which “soluble on expression in E. coli” value is on record?
Answer: Its value is “not soluble”.

Question: Which “soluble on expression in E. coli” value does the source give for “MPEVIFNGPAGRLEGRYQPSKEKSAPIAIILHPHPQFGGTMNNQIVYQLFYLFQKRGFTTLRFNFRSIGRSQGEFDHGAGELSDAASALDWVQSLHPDSKSCWVAGYSFGAWIGMQLLMRRPEIEGFMSIAPQPNTYDFSFLAPCPSSGLIINGDADKVAPEKDVNGLVEKLKTQKGILITHRTLPGANHFFNGKVDELMGECEDYLDRRLNGELVPEPAAKRIR” here?
Answer: Its value is “soluble”.

Question: Which “soluble on expression in E. coli” value does the source give for “MKGFYHHPSRTISLRNNLSERQLRSTLAHELGHAMRGDVPTSGVFAEHIERRADEFAARLLISPIEYRLAESLHDGHIGAIAYELGVTVRLVEVWRDMHDRITA” here?
Answer: The value was “not soluble”.

Question: For “MLEAPLLSICIPAYNRPNWLQRGLESIAVGEGSDIEIVITDDSDTDQGQAIASEVLKNWSGSWCYEHHQQPLGMAQNWNRAIQWATGQYVMVLHDDDFFLPQGLGLLVNKLRQLGSSSPVLLFGVRVVDAQERVVKRQGFRQDKLLPPHDALIRLFSDSSFVRFPAMVIRRDLFTEVGYFNPDWREPCDLEMWMRLFARYGVYCCREATVAYRVHGQALTMGSFHGETVNILLRLFGELEKLNILTTRDIEFCKGLFFHQYILAGAWRQLRRRRWREFKQVMGLFDLPELKSLSCPVKWRFLRGLFSLTLEHHHHHH”, which “soluble on expression in E. coli” value is on record?
Answer: The value was “not soluble”.

Question: For “MGSDKIHHHHHHMRFMLYEFLKNNYKEAEPIFFSDIVIEGITKSAVNQQLKKLCDEGKLQKYENGIYYLPKKSRLKTNVGVNADMVARYKYVSRGGKVDGFYSGNTFANQLGISTQVPNKVEIVSNNMAAKIREIPIGKRTFIVRRPVVPVNEENVYVLQLLDLLKNLDMYLDESYDVAHDKVSQFVQIHGITKNDVDSYIREFPIAIFRYYYELRLDDVFA”, which “soluble on expression in E. coli” value is on record?
Answer: The value was “not soluble”.

Question: With “MVPEVFAQARLRMDQLTKPPRALGYLEEVALRLAALQGRVKPELGRGAVVVAAADHGVVAEGVSAYPQEVTRQMVLNFLRGGAAINQFALAADCAVYVLDVGVVGELPDHPGLLKRKVRPGTANLAQGPAMTPEEAERALLAGREAARRAIAEGATLLAAGDMGIGNTTAAAALTAALLGLPPEAVVGRGTGVGEEGLRRKRQAVARALARLHPGMGPLEVAAEVGGIELVAIAGIYLEGYEAGLPLVLDGFPVTAGALLAWKMAPGLRDHLFAGHLSREPGHRHQLEALGLRPLLDLDLALGEGTGAVLAMPLLRAAARILHMATFQEAGVSRG” as the sequence, how does the “soluble on expression in E. coli” value read?
Answer: The value was “soluble”.

Question: With “EDCQNLLKPCSLCEKRPRDGNIIHGRTGHLVTCFHCARRLKKAGASCPICKKEIQLVIKVFIA” as the sequence, how does the “soluble on expression in E. coli” value read?
Answer: The value was “soluble”.

Question: With “MSQLFVRTGIHFSSSQQALEHIGAEMLARGVVHDSYPAALLEREATFPTGIALEKHAVAIPHCEAIHAKSPAIYLIRPDMPVSFQRADDDGEIDVSLIIALIVENPAAQLKLLRRLFSELQNPHTLEALLAASDDRLPVRFQQLILEPELSAVAS” as the sequence, how does the “soluble on expression in E. coli” value read?
Answer: The value was “not soluble”.

Question: With “MTKIFAYAIREDEKPFLKEWEDAHKDVEVEYTDKLLTPETVALAKGADGVVVYQQLDYIAETLQALADNGITKMSLRNVGVDNIDMAKAKELGFQITNVPVYSPNAIAEHAAIQAARILRQDKAMDEKVARHDLRWAPTIGREVRDQVVGVVGTGHIGQVFMQIMEGFGAKVITYDIFRNPELEKKGYYVDSLDDLYKQADVISLHVPDVPANVHMINDESIAKMKQDVVIVNVSRGPLVDTDAVIRGLDSGKIFGYAMDVYEGEVGIFNEDWEGKEFPDARLADLIARPNVLVTPHTAFYTTHAVRNMVVKAFDNNLELVEGKEAETPVKVG” as the sequence, how does the “soluble on expression in E. coli” value read?
Answer: Its value is “soluble”.

Question: For “MNITPFPTLSPATIDAINVIGQWLAQDDFSGEVPYQADCVILAGNAVMPTIDAACKIARDQQIPLLISGGIGHSTTFLYSAIAQHPHYNTIRTTGRAEATILADIAHQFWHIPHEKIWIEDQSTNCGENARFSIALLNQAVERVHTAIVVQDPTMQRRTMATFRRMTGDNPDAPRWLSYPGFVPQLGNNADSVIFINQLQGLWPVERYLSLLTGELPRLRDDSDGYGPRGRDFIVHVDFPAEVIHAWQTLKHDAVLIEAMESRSLRLEHHHHHH”, which “soluble on expression in E. coli” value is on record?
Answer: Its value is “not soluble”.

Question: For “AVKRRPRFPVNSNSNGGNELCPKIRIGQDDLPGFDLISQFQVDKAASRRAIQRVVGSATLQVAYKLGNNVDFRIPTRNLYPSGLPEEYSFLTTFRMTGSTLKKNWNIWQIQDSSGKEQVGIKINGQTQSVVFSYKGLDGSLQTAAFSNLSSLFDSQWHKIMIGVERSSATLFVDCNRIESLPIKPRGPIDIDGFAVLGKLADNPQVSVPFELQWMLIHCDPLRPRRETCHELPARITPSQTTDER”, which “soluble on expression in E. coli” value is on record?
Answer: Its value is “soluble”.

Question: Which “soluble on expression in E. coli” value does the source give for “MSFFKKLAASAGIGAAKVDTILEKDAYFPGEEVQGTVHVKGGKIAQDIRYIDLQLSTRYVIVKDDEEHRKYATIHSFRVTGSFTIQPGEEHQFPFTFTLPLDTPITVGKVEVAVVTDLDIQGGIDKSDHDRIFVEAHPWIENVLEAIENLGFRLNEADCEQAPYFQRRFPFVQEFEFVPTSGYYRQMLDELELIFLLGEDGLEIIFEVDRRARGLRGWLEEMYNDGEQLVRVRFSQSELEDAEELEEVLEEILDQYVE” here?
Answer: The value was “soluble”.

Question: For “AEIDTSSIVEMVQGAEDAPVEVIEYASYTCPHCAAFHEGPYKKLKADFIDTGKVRFIYREVYFDRYGLWASMVARCAGPEKFFGISDLIYKGQAEWSRAGGPAEIAEELRKIGRLAGIENDKLEACLGDATKAQTLVAWYQEHATRDDINSTPSFMINGKKVENQAYDGFKALIEAELGN”, which “soluble on expression in E. coli” value is on record?
Answer: Its value is “not soluble”.

Question: For “MTNEEPKSPEKVERRRSTQEDSEKDKKRSRDDRKTEKRTHDRDRKRNRSRSRSRSRSPKRSRRDKKEEKQEQEEEDGEIRDTTPPAPEKPRQLTARELERQRIIEEELKSGKHDEHDDDPVWSMKKAQAEKKSRMCPYLDTIDRSVLDFDFEKQCSVSLSHQNVYACMVCGKYFQGRGTNTHAYTHALETDHHVFLNLQTLKFYCLPDNYEVIDPSLEDIKYVLKPTYTKEMIASIDKQSKMVRAYDDSTYFPGVVGLNNIKANDYCNAILQALSAVRPLRNWFLKESNYTSIKRPPGDKLTLLPQRFGELIRKLWNPRALRTHVSPHEMLQAVVVCSNKKFQFIKQNDAADFMLFLLTTLHSALNGTDKKPSIISKTFRGRMRQYSRRVIPAEDTDEEKYMKLRMPEYQEKVIESPFLYLTLDLPSAPLYRDVQLQNIIPQVPLSTLLEKFDGKTEKEYPTYNDNNIMKRFELLQLPDFLIITYKRFQKNQWFVEKNPTIVNFPIANVDFYDCLAKDARANHKYTTYDLVANVVHEGTFKDGNYRIQIVHEGSGKWFELEDLHVKDLLPQMIVLAESYIQIWRLNKEQTRDERAEGEPMQN”, which “soluble on expression in E. coli” value is on record?
Answer: Its value is “not soluble”.

Question: With “MEKATKRNDEECEVQLNIKRNSKHSAWTGELFKIECPVKYCVHRPNVTWCKHNGTIWVPLEVGPQLYTSWEENRSVPVFVLHFKPIHLSDNGSYSCSTNFNSQVINSHSVTIHVRERSQNSS” as the sequence, how does the “soluble on expression in E. coli” value read?
Answer: Its value is “soluble”.
